According to PMC4931022, “Arginine demethylation is catalysed by a subset of JmjC histone lysine demethylases” (Nature Communications, 2016):

Tests used:
KDM5C(1-765) (human) = biological target: T1, KDM5C(1-765) (human) (UniProt P41229)
T1 sequence: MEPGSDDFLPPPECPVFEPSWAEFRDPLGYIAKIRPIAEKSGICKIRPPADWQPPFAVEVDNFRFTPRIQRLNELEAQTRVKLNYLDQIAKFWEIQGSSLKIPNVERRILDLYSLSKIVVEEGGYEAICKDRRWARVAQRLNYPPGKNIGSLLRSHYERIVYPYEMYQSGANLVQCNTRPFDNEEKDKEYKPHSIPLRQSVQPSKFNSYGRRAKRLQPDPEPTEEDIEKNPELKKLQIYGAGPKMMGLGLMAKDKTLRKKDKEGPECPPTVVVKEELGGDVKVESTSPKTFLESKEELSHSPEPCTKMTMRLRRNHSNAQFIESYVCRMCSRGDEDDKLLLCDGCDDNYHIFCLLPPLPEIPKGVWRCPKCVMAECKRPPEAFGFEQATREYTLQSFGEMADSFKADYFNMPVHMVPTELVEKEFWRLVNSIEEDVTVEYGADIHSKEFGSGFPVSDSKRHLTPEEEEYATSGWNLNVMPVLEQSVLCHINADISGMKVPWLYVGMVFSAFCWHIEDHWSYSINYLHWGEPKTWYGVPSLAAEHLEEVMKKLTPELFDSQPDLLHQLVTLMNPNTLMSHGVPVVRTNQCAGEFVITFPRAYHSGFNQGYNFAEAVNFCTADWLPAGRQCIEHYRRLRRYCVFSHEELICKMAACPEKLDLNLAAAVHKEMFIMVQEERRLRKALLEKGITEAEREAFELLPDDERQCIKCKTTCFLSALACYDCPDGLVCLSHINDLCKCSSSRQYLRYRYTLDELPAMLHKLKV

KDM3A(515-1,317) (human) = biological target: T2, KDM3A(515-1,317) (human) (UniProt Q9Y4C1)
T2 sequence: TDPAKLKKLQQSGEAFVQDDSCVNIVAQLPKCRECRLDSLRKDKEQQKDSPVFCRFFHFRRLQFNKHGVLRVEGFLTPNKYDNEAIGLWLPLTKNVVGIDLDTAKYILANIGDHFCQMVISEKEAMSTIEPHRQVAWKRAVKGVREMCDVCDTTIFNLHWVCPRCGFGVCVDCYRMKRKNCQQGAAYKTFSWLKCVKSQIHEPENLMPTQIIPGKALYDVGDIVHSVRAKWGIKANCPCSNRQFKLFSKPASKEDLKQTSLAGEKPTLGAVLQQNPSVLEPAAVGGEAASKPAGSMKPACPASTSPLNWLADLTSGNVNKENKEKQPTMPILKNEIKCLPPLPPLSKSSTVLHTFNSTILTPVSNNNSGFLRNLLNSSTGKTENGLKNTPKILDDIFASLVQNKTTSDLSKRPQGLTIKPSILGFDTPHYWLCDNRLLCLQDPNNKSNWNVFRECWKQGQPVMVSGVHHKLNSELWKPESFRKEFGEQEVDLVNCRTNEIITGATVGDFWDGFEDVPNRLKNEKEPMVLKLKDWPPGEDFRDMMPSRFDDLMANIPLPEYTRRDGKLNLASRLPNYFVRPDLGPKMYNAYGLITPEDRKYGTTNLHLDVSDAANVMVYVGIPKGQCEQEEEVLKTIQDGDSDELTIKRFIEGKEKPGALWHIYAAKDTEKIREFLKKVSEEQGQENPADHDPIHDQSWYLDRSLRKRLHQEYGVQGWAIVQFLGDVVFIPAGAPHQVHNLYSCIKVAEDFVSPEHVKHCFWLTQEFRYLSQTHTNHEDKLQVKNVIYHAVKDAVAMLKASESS

KDM4E(1-337) (human) = biological target: T3, KDM4E(1-337) (human) (UniProt B2RXH2)
T3 sequence: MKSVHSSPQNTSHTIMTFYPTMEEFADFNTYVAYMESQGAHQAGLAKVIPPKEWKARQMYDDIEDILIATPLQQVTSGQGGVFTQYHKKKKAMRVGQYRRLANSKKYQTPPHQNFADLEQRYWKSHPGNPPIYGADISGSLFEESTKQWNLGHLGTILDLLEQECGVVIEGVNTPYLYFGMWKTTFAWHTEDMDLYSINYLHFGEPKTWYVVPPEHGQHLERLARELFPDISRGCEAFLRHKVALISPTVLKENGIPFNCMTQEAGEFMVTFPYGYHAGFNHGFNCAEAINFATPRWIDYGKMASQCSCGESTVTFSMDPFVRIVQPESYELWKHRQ

[1] = biological target: KDM6B(1,141-1,590) (human) (UniProt O15054)
KDM6B(1,141-1,590) (human), sequence (O15054 1141-1590): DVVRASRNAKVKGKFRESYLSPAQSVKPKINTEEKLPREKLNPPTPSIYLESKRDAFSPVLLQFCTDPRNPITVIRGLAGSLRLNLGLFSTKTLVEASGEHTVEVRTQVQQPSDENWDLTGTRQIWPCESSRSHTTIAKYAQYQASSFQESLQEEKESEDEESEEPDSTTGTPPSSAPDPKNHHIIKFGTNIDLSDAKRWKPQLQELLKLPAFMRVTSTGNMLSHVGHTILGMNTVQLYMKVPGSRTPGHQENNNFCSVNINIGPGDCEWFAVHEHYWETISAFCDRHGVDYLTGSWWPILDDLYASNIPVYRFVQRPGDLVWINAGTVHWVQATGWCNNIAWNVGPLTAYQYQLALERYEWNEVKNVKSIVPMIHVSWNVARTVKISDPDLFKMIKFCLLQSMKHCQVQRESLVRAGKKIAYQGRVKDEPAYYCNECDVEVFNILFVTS

Q: How did the apparent KM, formaldehyde dehydrogenase-coupled demethylation assay (KDM5C(1-765) (human)) turn out when “H3(1-15)K4Rme2a (from UniProt P68431 2-16) (peptide)” was run?
A: 29 µM

Q: “H3(1-15)K4Rme2s (from UniProt P68431 2-16) (peptide)” was tested. Which apparent KM, formaldehyde dehydrogenase-coupled demethylation assay (KDM5C(1-765) (human)) did it give?
A: 21.1 µM

Q: Which apparent KM, formaldehyde dehydrogenase-coupled demethylation assay (KDM5C(1-765) (human)) does the source give for “H3(1-15)K4me3 (from UniProt P68431 2-16) (peptide)” here?
A: 7.6 µM

Q: Which apparent KM, formaldehyde dehydrogenase-coupled demethylation assay (KDM3A(515-1,317) (human)) does the source give for “H3(1-15)K9Rme2a (from UniProt P68431 2-16) (peptide)” here?
A: 11.6 µM

Q: What about the apparent KM, formaldehyde dehydrogenase-coupled demethylation assay (KDM4E(1-337) (human)) of the same substance?
A: 66 µM

Q: With “H3(1-15)K9Rme2s (from UniProt P68431 2-16) (peptide)” as the substance, how does the apparent KM, formaldehyde dehydrogenase-coupled demethylation assay (KDM3A(515-1,317) (human)) read?
A: 23.7 µM

Q: And the apparent KM, formaldehyde dehydrogenase-coupled demethylation assay (KDM4E(1-337) (human))?
A: 101 µM

Q: What does the source list for “H3(1-15)K9Rme (from UniProt P68431 2-16) (peptide)”?
A: apparent KM, formaldehyde dehydrogenase-coupled demethylation assay (KDM3A(515-1,317) (human)): 12.1 µM; apparent KM, formaldehyde dehydrogenase-coupled demethylation assay (KDM4E(1-337) (human)): 169 µM

Q: With “H3(1-15)K9me2 (from UniProt P68431 2-16) (peptide)” as the substance, how does the apparent KM, formaldehyde dehydrogenase-coupled demethylation assay (KDM3A(515-1,317) (human)) read?
A: 44.5 µM

Q: With “H3(1-15)K9me3 (from UniProt P68431 2-16) (peptide)” as the substance, how does the apparent KM, formaldehyde dehydrogenase-coupled demethylation assay (KDM4E(1-337) (human)) read?
A: 17.8 µM

Q: “H3(14-34)K27Rme2a (from UniProt P68431 15-35) (peptide)” was tested. Which apparent KM, formaldehyde dehydrogenase-coupled demethylation assay [1] did it give?
A: 676 µM

Q: How did the apparent KM, formaldehyde dehydrogenase-coupled demethylation assay [1] turn out when “H3(14-34)K27me3 (from UniProt P68431 15-35) (peptide)” was run?
A: 6.7 µM
